From the DeepSol protein solubility set

test: soluble on expression in E. coli; label from the status in PepcDB or PDB records

Sequence | soluble on expression in E. coli
MKLYYTPGSCSLSPHIVLRETGLDFSIERIDLRTKKTESGKDFLAINPKGQVPVLQLDNGDILTEGVAIVQYLADLKPDRNLIAPPKALERYHQIEWLNFLASEVHKGYSPLFSSDTPESYLPVVKNKLKSKFVYINDVLSKQKCVCGDHFTVADAYLFTLSQWAPHVALDLTDLSHLQDYLARIAQRPNVHSALVTEGLIKE | soluble
VEPSEENSKDCVVCQNGTVNWVLLPCRHTCLCDGCVKYFQQCPMCRQFVQESFAL | soluble
MSLTQPPQQAISAAHSELEQNHRVLLQLMDTLVSQIKDYSEDVEFNLQNDSTIKNTIVEILSFISRSNQKDQLSLKVSQAVVNSLFGSNESKLCRDVLSLLLEKLCSLSIVARKDVVWWLVYALDPRKFNVPVVRSLLEVNLINIAEFDAVLVTAMKNGMAGATEFSMNLIRDTVMADSPILMRLDFIRILGYLRTINTPEIKAFLEEYEQCRAVPVSKTTSITKVERYYLVFTEWVKLQQRVETDDVVNIVFIRQLFEKGVIDSKEKVIEFIKAALELSVNSFKQSDPTGEVFTSIDALSRLITSLLVVQELNVEERKEYLNLLLSVVTLVFAKDHQTNMTSFNERPYFRLYSSLLSDWDKLRDHHFIRVSDSVVRKSLIEFDQYFFDIFASFLHSYQPIAFPGFSFAWITLISHRMFLPKVLRSKELYGWDKLVLLLIDLMKFLSQYIKKDNVPDSISVIYKGALRIFLGISNDVPEFLIQNHYKLVKNVPPTCIQLRNIILSAIPKKMMIPDPFVSEITEDNCKDIPQVFYDPSQDLKSLKKPIINYLRIPSSSLLRTICGGMFRTELEYENGIGYDENNVDVNLIHAIVTHVAVEVGLEVEKASKNAVFNVKSSYYTLLFGLLSDGNDEVKFHIIQAMVNQLRYPNVHTHWFNFALKLMFQSDQWPDDQLSTIQEIILRSLLERIIVNKPHPWGVVVTFMDLLKLEGTKMIEKPFINDIPEIHAIMKNLQKYALTSSSEGHHHHHH | soluble
MGSDKIHHHHHHMAFNFGCLNSPETVSSALATRENSLGLAIDPFLAPVAMVATQDIVLRQYFRERIVLGQENLPMQGPVLLAPTHRSRWDALMLPMAAGRRVTGRDCRFMVTVDEMKGLQGWFLHRLGCFPVNQSKPSLTSLRYAIDLMADGQQVVVFPEGTINRTEKPIKLYQGLARLAQLAKSQNIDVQVVPVGLGYSEVIPKACGRASICFAEPMKVLETGREAVKSFNAELSEKMHAAEQAALHAVGRLKKAP | not soluble
MSLNARARALRHSRSGTIGLIVPDVNNAVFADMFSGVQMAASGHSTDVLLGQIDAPPRGTQQLSRLVSEGRVDGVLLQRREDFDDDMLAAVLEGVPAVTINSRVPGRVGSVILDDQKGGGIATEHLITLGHSRIAFISGTAIHDTAQRRKEGYLETLASAGLRSEAAWVVDAGWEADAGSAALNTLYRGANLGKPDGPTAVVVASVNAAVGALSTALRLGLRVPEDLSIVGINTTWVSDTVYPALTTVRLPLQRLGEVAADVLMEHLGGRALTDTVVTQPTPELLVRETTAPPTREGHHHHHH | soluble
MTAISCSPRPRYASRMPVLSKTVEVTADAASIMAIVADIERYPEWNEGVKGAWVLARYDDGRPSQVRLDTAVQGIEGTYIHAVYYPGENQIQTVMQQGELFAKQEQLFSVVATGAASLLTVDMDVQVTMPVPEPMVKMLLNNVLEHLAENLKQRAEQLAAS | soluble
MDAFSGIAGPLGRASELHRYEGNQTVVFCAGGVGLPPVYPIMREHLRLGNHVTLISGFRAKEFLFWTGDDERVGKLKKEFGDQLSLIYTTNDGSYGVKGFVTGPLEEMMKANQEGKGRSIAEVIAIGPPLMMRAVSDLTKPYGVKTVASLNSLEHHHHHH | soluble
MTTFSHSSTTPSVSVTTASGNNQSQLVATPVPDEQRISFWPQHFGLIPQWVTLEPRVFGWMDRLCEDYCGGIWNLYTLNNGGAFIAPEPDEDDGETWILFNAMNGNRAEMSPEAAGIAACLMTYSHHACRTECYAMTVHYYRLRDYALQHPECSAIMRIID | not soluble
MAHHHHHHMGCTASKTKTPAANVASKGADEFYALATTERHPVAEKLLEEWVLFVDAQARRNAGDSSAARAYETRLKEVWADTTNRPVTHRSVDYVGKMFLEYIKEDLSHRGWGGNFDYKVAGVVTQGFLKANANIDTALSDTPEEVTWEIKIHYDSLGVS | soluble
MGSDKIHHHHHHMKSYLTPLALLVSSVFSTVAYAETQLFVTTSSTQDAPLHIVYPTGIRIGQAVQDGLQQLPLYNKTNNKEVMPIYWLGAALVDLENTAVLETKRQQVLSQLAQMGEATNDSRYITKLAQLAQFLRGIKLGQRVMQPLDIDAIRITESYNAIIEGKYQLVLPPRPSTITLVGAVTQTGNMPWQSQTSSKDYLKQAGLLENAETSFVWIIQPDGNAIRQPIAYWNYQAQDIAPGATLFVEFSSLFDGYANLNENIIELLKNRTL | not soluble
MNSNKELMQRRSQAIPRGVGQIHPIFADRAENCRVWDVEGREYLDFAGGIAVLNTGHLHPKVVAAVEAQLKKLSHTCFQVLAYEPYLELCEIMNQKVPGDFAKKTLLVTTGSEAVENAVKIARAATKRSGTIAFSGAYHGRTHYTLALTGKVNPYSAGMGLMPGHVYRALYPCPLHGISEDDAIASIHRIFKNDAAPEDIAAIVIEPVQGEGGFYASSPAFMQRLRALCDEHGIMLIADEAQSGAGRTGTLFAMEQMGVAPDLTTFAKSIAGGFPLAGVTGRAEVMDAVAPGGLGGTYAGNPIACVAALEVLKVFEQENLLQKANDLGQKLKDGLLAIAEKHPEIGDVRGLGAMIAIELFEDGDHNKPDAKLTAEIVARARDKGLILLSCGPYYNVLRILVPLTIEDAQIRQGLEIISQCFDEAKQ | soluble
MAHHHHHHMEEGGRYAACKAELYKLQEKIKTQETPRDNCAEKEKMWEKQRSELEQEKDECLRTSDAHRTQKQDLEDRVRYMDGLTRAMISEKRFAEERRNISEKENEDLKTRVRVLTHKLGVLTAMVQKLHISHMIKDMGIAMLQAEAKQAAEEMETNHKKDVAAAEERVLQECKEKFCFDSSGNLNAAVFIEHNISKENRSFLLEQLNCSKENQGDTKREWRFWRKGANDSSRPKKSADHSESNGSSHGNNIHLVLRVCLSLLLLTALS | not soluble
MSLKRALAALVLLGAVAQAQTGHAGHSVGSVSTGVSMPAMSKQMVSALGPLRGRAFDIKFAQLMMDHHQMALDMAGQELSSGKNAQVRAAAKKVVAAQQQEIALMTGWLRKWTGKVYVPQTLPMVLTGTVNTDRWFLTEMLPHHQGAVDMSKLAAGRSGSSEVKKLALSIIRSQTAEMNTYRQLLKTVKEGHHHHHH | soluble
MGHHHHHHSHMGYIYIVSFGDVEDRLLLADASNVKEIFDLEVRVSTVKADIEEAYNPQRNQYHAGTILSYLSRVVYPDMVRLVALVSFDLYEEGLNFVFGEAQYGGKYAVVSTYRLYHPDERVFFERVFKETNHELGHTFGLKHCPDPYCVMSFSNSIDEVDRKSRDFCPNCRRKLDYVLSYYR | not soluble
SESICNSLNSKLEPTLENLENLDVSAFQAPEDLLDGCRIYLCGFSGRKLDKLRRLINSGGGVRFNQLNEDVTHVIVGDYDDELKQFWNKSAHRPHVVGAKWLLECFSKGYMLSEEPYIH | soluble
MAHHHHHHMAQASGCELMDFVSVLPVPPQTERRRGVLRFVGSTDFAPGLWMGIELFGTIGRNDGSVMGKSYFSCPAGQGVFVRPELVVPYMSEGEGPSGTVRKGDEFLAVVEPLRADLTRMQEELQQREAALRDAREELRNVMALHDAKSVELEREREEKSRMIMLTMTACRNNVTATTQTDEDKAVEVKDLEIHRLQQQCADLRDLCELQEDEIHRQREHADDLAQIVENLRREHEEERVRMVEKIRSLEEEITQRQKATAEDSAKADVEDMHLHAFQQQQEKEALRILKERYEQLYAERESERHEQEAKWKRATAEYEEALTQQREYKNRLLNEIRQLQHEIKDMRHSRERERVLQVPLSTLERDEYESQIYGLQWELMGVHEEMFSKRYDHFLAPVSSWNLPADVMRALSEEIMSLERVLPFTTPEKCQQSRMVLFQMHPRDAEGGTIAAAPL | not soluble
MGSDKIHHHHHHMKHGGYPWKNGKPALDVKDFSVNLNPMGVPKFIEELINEAVKLKVYAYYPPQNLREIKGIIAEIYGVNEDLVGVFNGASEVISILDENFTVPQPNYSEYKFHSYYFAEEHEDEFVFELNPGRILTSNPNNPTGSLIKLDEIEEFLINEKNELILDESFIDISLAESATKLVNEFNNLTIINSFTKSLAIPGLRFGFSIGHKSKELEKRVPIWRINSITYYVISNLNPKEVRSFFVNSKIKVKEIYDKVDGVKKLFKMYKSYAPFFLVEFKIPTSLINDELIRRCKCYIRDASNFLGLRNTHARIALKNEVIELINNINEIISEKES | not soluble
MKIVKAEVFVTCPGRNFVTLKITTEDGITGLGDATLNGRELSVASYLQDHLCPRLIGRDAHRIEDIWQFFYKGAYWRRGPVTMSAISAVDMALWDIKAKAANMPLYQLLGGASREGVMVYCHTTGHSIDEALDDYARHQELGFKAIRVQCGIPGMKTTYGMSKGKGLAYEPATKGQWPEEQLWSTEKYLDFMPKLFDAVRNKFGFNEHLLHDMHHRLTPIEAARFGKSIEDYRMFWMEDPTPAENQECFRLIRQHTVTPIAVGEVFNSIWDCKQLIEEQLIDYIRTTLTHAGGITGMRRIADFASLYQVRTGSHGPSDLSPVCMAAALHFDLWVPNFGVQEYMGYSEQMLEVFPHNWTFDNGYMHPGDKPGLGIEFDEKLAAKYPYEPAYLPVARLEDGTLWNR | not soluble
MSLRFIDKLYQANLGKLTAGISPAALGTAYYSWFAQLLQSPGSMLRLAYYPLLHANDYLSNLFKYDKPRDGKDVRFHTENWSYYPWRLWAEQFLQFEDWCLQASSKVPGIPLHVKRTVTFSTRQILDALSPSNFVLTNPDLLQETIRSNGQNLIRGTELAFQDFVEKITGSPPAGVENFIPGKQVAVTEGKVVYSNHLIELIQYTPQTEKVYKEPILILPAWIMKYYILDLLPENSLVNWLVRQGHTVFIVSWRNPTKEDRNIGLDDYYKLGAMDAINAVSNAIPHTKIHLMGYCLGGTLALLTAAAMAHDHDNRLKTLSLLAAQGDFIDAGELLLFITKSEVSFLKSMMWEQGYLDTKQMSGTFQMLRSYDLIWSKMVQDYMHGTQRGMIPLLAWNADATRMPYKMHSEYLEKLFLNNDFAEGRFILDGKPVVGENIRMPAFVVSTEKDHVAPWKSVYKTHLLINSDITFVLTNGGHNAGIVSEPGHEGRYYRIRERKMDSTYLDPTNWLKKAELREGSWWIAWHDWLVNHSSQKQVSAPKLDKNLPNAPGKYVLQKEGHHHHHH | not soluble
DVGSAIDAAHQAFLRYQQCPLKTRSAIISALRETLAPELATLAEESATETGMGNKEDKYLKNKAALENTPGIEDLTTSALTGDGGMVLFEYSPFGVIGAVAPSTNPTETIINNSISMLAAGNSVYFSPHPGAKKVSLKLIARIEEIAYRCSGIRNLVVTVAEPTFEATQQMMSHPLIAVLAITGGPGIVAMGMKSGKKVIGAGAGNPPCIVDETADLVKAAEDIISG | not soluble
GAMSSPAGSPTEQAPPAKGSVKVLRTVATGLNSPWGLAPLPGGDLLVSSRDEATITRVDAKTGRKTELGEVPGVSPSGEGGLLGIALSPDYASDHMVYAYFTSASDNRIVRMLYDEKKPSGEQLGAPDTVFRGIPKGVIHNGGRIAFGPDKMLYAGTGESGDTGLSQDRKSLGGKILRMTPDGEPAPGNPFPGSPVYSYGHRNVQGLAWDDKQRLFASEFGQDTWDELNAIKPGDNYGWPEAEGKGGGSGFHDPVAQWSTDEASPSGIAYAEGSVWMAGLRGERLWRIPLKGTAAAADPQAFLEGEYGRLRTVAPAGGDKLWLVTSNTDGRGDAKGGDDRILELEVE | soluble
